The target in assay [1] is T1, B7H3 on B7H3-positive human melanoma A375 cells (human, UniProt Q5ZPR3 29-534).
T1 construct: whole, on cells; Endogenous B7H3 on A375 cells; also called B7H3-positive A375 cells
T1 sequence (looked up): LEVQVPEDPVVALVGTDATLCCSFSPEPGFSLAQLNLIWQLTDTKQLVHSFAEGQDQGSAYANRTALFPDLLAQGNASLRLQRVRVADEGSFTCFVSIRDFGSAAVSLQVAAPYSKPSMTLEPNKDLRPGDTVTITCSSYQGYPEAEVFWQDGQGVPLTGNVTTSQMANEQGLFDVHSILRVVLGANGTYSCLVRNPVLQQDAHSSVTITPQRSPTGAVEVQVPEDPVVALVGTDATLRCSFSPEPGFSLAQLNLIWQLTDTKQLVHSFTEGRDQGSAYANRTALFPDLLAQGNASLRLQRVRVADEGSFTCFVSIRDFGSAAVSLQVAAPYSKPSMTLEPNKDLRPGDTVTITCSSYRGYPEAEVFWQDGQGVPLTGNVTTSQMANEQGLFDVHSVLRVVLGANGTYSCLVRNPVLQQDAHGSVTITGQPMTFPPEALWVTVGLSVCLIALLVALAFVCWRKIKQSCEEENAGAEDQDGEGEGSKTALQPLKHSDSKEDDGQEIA
Kind of assay: flow cytometry on B7H3-positive A375 cells, MFI. For orientation: Flow cytometry measures light scatter and fluorescence of single cells or particles in a stream.

Assay [2] addresses T2, His-tagged human B7H3 protein (purchased from Beijing ACROBiosystems Co., Ltd.) (human, UniProt Q5ZPR3-2 29-245, limits assumed).
T2 construct: not shown: His tag
T2 sequence (looked up): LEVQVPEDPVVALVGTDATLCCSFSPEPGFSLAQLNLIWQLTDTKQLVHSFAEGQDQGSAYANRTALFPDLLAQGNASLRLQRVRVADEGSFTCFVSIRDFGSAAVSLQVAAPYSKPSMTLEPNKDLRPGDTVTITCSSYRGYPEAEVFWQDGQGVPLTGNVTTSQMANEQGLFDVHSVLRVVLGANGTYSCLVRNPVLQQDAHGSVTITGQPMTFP
As to the kind of experiment: ELISA, His-tagged human B7H3 coated on plate, anti-human IgG-HRP. On the technique in general: ELISA stands for enzyme-linked immunosorbent assay.

Substitutions are numbered along the chain they refer to.

B1: M30 antibody (CN103687945B) (antibody, human IgG1, kappa, V domains shown)
VH: QVQLVQSGAEVKKPGSSVKVSCKASGYTFTNYVMHWVRQAPGQGLEWMGYINPYNDDVKYNEKFKGRVTITADESTSTAYMELSSLRSEDTAVYYCARWGYYGSPLYYFDYWGQGTLVTVSS
VL: EIVLTQSPATLSLSPGERATLSCRASSRLIYMHWYQQKPGQAPRPLIYATSNLASGIPARFSGSGSGTDFTLTISSLEPEDFAVYYCQQWNSNPPTFGQGTKVEIKR
notes: also called M30-H1/M30-L4
A word on the EC50: it is the concentration that produces a half-maximal response. With B1, the EC50 in assay [1] was found to be 125 ng/mL.

B2: antibody-drug conjugate 43B-045-6 (antibody, human IgG1, kappa, L234A L235A)
heavy: QVQLVQSGAEVKKPGASVKVSCKASGYTFTDYFMNWVRQAPGQGLEWMGDVNPKTGSPSYNQKFKGRVTMTRDTSTSTVYMELSSLRSEDTAVYYCARRYGFLYSMDYWGQGTSVTVSSASTKGPSVFPLAPSSKSTSGGTAALGCLVKDYFPEPVTVSWNSGALTSGVHTFPAVLQSSGLYSLSSVVTVPSSSLGTQTYICNVNHKPSNTKVDKRVEPKSCDKTHTSPPCPAPEAAGGPSVFLFPPKPKDTLMISRTPEVTCVVVDVSHEDPEVKFNWYVDGVEVHNAKTKPREEQYNSTYRVVSVLTVLHQDWLNGKEYKCKVSNKALAASIEKTISKAKGQPREPQVYTLPPSREEMTKNQVSLTCLVKGFYPSDIAVEWESNGQPENNYKTTPPVLDSDGSFFLYSKLTVDKSRWQQGNVFSCSVMHEALHNHYTQKSLSLSPGK
light: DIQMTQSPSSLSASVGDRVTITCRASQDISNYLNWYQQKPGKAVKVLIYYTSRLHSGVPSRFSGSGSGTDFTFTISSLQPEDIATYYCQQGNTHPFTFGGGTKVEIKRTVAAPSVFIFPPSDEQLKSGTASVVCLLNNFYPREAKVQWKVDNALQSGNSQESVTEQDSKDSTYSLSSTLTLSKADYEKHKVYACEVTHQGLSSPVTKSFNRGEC
modifications: linker-drug compound 045 (exatecan) on thiols of reduced interchain cysteines; DAR of the whole conjugate 5.7
The molecule B2 gave an EC50 in assay [1] of 37.8 ng/mL.

B3: antibody-drug conjugate 43A-DXd (antibody, human IgG1, kappa, L234A L235A)
heavy: B2 heavy with S228C
light: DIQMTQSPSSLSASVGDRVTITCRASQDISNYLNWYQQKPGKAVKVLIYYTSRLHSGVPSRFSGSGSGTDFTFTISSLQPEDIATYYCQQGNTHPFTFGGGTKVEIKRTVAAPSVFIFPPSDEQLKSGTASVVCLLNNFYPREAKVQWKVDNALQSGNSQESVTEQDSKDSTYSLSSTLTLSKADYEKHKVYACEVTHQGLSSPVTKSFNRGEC
modifications: deruxtecan linker-drug on thiols of reduced interchain cysteines; DAR of the whole conjugate 7.4
With B3, in assay [2], the EC50 was determined as 1.19 ng/mL.

B4: anti-B7H3 antibody 43A (antibody, human IgG1, kappa, L234A L235A)
heavy: B2 heavy with S228C
light: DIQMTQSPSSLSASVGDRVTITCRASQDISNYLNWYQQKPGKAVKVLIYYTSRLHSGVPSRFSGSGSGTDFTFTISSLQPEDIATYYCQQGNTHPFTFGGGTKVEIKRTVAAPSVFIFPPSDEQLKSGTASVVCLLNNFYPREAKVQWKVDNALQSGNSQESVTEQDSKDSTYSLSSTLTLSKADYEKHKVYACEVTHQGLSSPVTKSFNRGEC
notes: 2 identical heavy chains and 2 identical light chains
For B4, the figures for the EC50 in assay [1] and in assay [2] were 54.5 ng/mL and 1.02 ng/mL, respectively.

B5: antibody-drug conjugate 43A-043 (antibody, human IgG1, kappa, L234A L235A)
heavy: B2 heavy with S228C
light: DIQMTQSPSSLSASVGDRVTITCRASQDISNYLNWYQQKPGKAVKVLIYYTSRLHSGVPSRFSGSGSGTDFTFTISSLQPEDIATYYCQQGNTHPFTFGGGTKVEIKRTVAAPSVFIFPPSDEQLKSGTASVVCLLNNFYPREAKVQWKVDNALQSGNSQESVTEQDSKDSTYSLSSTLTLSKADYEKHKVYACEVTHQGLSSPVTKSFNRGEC
modifications: linker-drug compound B_3 (exatecan) on thiols of reduced interchain cysteines; DAR of the whole conjugate 7.8
In the case of B5, the EC50 in assay [2] is 1.09 ng/mL.

B6: antibody-drug conjugate 43A-042 (antibody, human IgG1, kappa, L234A L235A)
heavy: B2 heavy with S228C
light: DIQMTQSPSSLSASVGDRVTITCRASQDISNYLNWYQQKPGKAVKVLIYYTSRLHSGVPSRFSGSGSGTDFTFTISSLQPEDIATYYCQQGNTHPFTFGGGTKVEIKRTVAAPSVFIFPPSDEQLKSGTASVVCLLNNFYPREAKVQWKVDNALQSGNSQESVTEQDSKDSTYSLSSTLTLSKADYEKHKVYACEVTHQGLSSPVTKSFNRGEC
modifications: linker-drug compound A_10 (exatecan) on thiols of reduced interchain cysteines; DAR of the whole conjugate 7.6
In assay [2], B6 gave an EC50 of 1.17 ng/mL.

B7: antibody-drug conjugate 43B-042 (antibody, human IgG1, kappa, L234A L235A)
heavy: B2 heavy
light: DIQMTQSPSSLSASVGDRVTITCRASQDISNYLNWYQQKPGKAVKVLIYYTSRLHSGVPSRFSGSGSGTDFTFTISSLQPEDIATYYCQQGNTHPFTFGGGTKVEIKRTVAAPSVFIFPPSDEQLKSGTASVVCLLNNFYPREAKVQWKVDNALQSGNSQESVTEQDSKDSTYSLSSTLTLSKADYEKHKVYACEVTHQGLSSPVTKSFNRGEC
modifications: linker-drug compound A_10 (exatecan) on thiols of reduced interchain cysteines; DAR of the whole conjugate 5.9
In turn, B7 returned an EC50 in assay [2] of 1.16 ng/mL.

B8: antibody-drug conjugate 43B-043 (antibody, human IgG1, kappa, L234A L235A)
heavy: B2 heavy
light: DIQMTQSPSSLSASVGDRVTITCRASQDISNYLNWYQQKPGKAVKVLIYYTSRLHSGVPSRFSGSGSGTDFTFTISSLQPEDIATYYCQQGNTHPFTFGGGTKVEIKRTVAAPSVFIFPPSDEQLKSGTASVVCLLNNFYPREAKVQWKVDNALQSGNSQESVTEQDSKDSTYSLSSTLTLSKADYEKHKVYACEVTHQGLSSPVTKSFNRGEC
modifications: linker-drug compound B_3 (exatecan) on thiols of reduced interchain cysteines; DAR of the whole conjugate 5.9
As to B8, the EC50 in assay [2] was 1.05 ng/mL.

B9: anti-B7H3 antibody 43B (antibody, human IgG1, kappa, L234A L235A)
heavy: B2 heavy
light: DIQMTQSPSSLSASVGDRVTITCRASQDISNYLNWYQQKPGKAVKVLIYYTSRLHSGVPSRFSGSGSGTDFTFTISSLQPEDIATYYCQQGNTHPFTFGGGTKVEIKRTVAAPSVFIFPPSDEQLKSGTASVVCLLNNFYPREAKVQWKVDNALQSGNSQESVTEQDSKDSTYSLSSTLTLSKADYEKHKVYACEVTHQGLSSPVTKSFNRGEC
notes: as for B4
In the case of B9, the EC50 stood at 61.2 ng/mL in assay [1] and 1.05 ng/mL in assay [2].

The record behind these values is EP4736885A1 (CSPC Megalith Biopharmaceutical Co., Ltd., dated 2025).
